Results from paper PMC4159253.

Target: F241A IgG1 Fc fragment (human)
Assay: crystal structure

- stoichiometry N: 2
Substance: F241A IgG1 Fc fragment (domain or fragment)
